Assays:
[1] = target: T1, E52-RAR interaction (Homo sapiens, UniProt P10276); assay: Yeast two-hybrid assay, E52-RAR interaction; type: cell-based; details: 3 μM ligand
T1 construct: hRAR (amino acids 186-462); expressed in transfected cells; host or cells: Y190 yeast cells
T1 sequence (P10276 186-462): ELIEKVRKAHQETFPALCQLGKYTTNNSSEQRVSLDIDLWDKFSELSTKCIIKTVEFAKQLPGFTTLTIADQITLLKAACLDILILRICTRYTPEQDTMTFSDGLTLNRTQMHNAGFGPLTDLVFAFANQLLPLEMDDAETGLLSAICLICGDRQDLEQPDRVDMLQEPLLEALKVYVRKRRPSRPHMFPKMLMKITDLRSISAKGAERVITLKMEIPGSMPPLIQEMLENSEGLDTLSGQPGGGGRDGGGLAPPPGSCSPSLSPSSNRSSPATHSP
Protocol: Transformants were selected onto DO-Leu-Trp-His plates containing 40 mM 3-aminotriazole (Sigma) for 3-4 days. Surviving yeast colonies were picked as primary positives and restreaked on selection plates to isolate single clones. Activation domain plasmids were rescued from the selected positive transformants for further analysis. Each clone was evaluated by testing its potential interaction with several other nuclear receptors using the yeast two-hybrid assays. […] Quantitative liquid assay of β-galactosidase was performed on positive clones 16 hr after treating the yeast cells with no ligand, or with 3 μM ligand.

[2] = target: GST-SMRT (GST fusion of the C-SMRT encoded by the yeast two hybrid clone) (human) (UniProt Q9Y618); assay: far-western: 35S-labelled receptor on immobilized GST-SMRT, phosphoimager
[3] = tested on: GAL4-TK-luciferase reporter in CV-1 cells; assay: GAL4-SMRT amino terminus fusions cotransfected with GAL4-TK-luciferase reporter in CV-1 cells; type: cell-based, Monkey; details: luciferase normalized to β-galactosidase
Protocol: Experiments were performed using the plasmids pCMX-GAL4 DBD and pMH100-TK-luc (Nagy et al., (1997), supra). Standard PCR amplifications were used to generate GAL4 fusion constructs. All constructs were verified by double-stranded sequencing to confirm identity and reading frame.
Monkey CV-1 cells were grown in DMEM supplemented with 10% resin-charcoal stripped fetal bovine serum (FBS), 50 units/ml of penicillin G, and 50 μg/ml of streptomycin sulfate at 37° C. in 7% CO2. V-1 cells (60-70% confluence, 48-well plate) were cotransfected with 16 ng of pCMX-GAL4, 100 ng of pMH100-TK-luc, and 100 ng of pCMX-β galactosidase in 200 μl of DMEM containing 10% super-stripped fetal calf serum (FCS) by the N-(1-(2,3-dioleoyloxy)propyl)-N,N,N-trimethylammonium methylsulfate (DOTAP)-mediated procedure (Nagy et al., (1997), supra). The amount of DNA in each transfection was kept constant by addition of pCMX. After 24 hr, the medium was replaced; cells were harvested and assayed for luciferase activity 36 to 48 hr after transfection. […]
Based on the high degree of identity between regions of the SMRT amino terminus and the corresponding N-CoR region, the ability of regions in the SMRT amino terminus to act in transcriptional repression was examined. […] Repression was determined relative to the basal activity of the reporter in the presence of the GAL-DBD alone.

[4] = target: T2, EcR A483T (Drosophila, UniProt P34021 1-878); assay: mammalian two-hybrid in CV-1 cells (with VP16-USP)
T2 construct: CMV vector, cotransfected with VP16-USP; also called repression-defective EcR allele
T2 sequence (looked up): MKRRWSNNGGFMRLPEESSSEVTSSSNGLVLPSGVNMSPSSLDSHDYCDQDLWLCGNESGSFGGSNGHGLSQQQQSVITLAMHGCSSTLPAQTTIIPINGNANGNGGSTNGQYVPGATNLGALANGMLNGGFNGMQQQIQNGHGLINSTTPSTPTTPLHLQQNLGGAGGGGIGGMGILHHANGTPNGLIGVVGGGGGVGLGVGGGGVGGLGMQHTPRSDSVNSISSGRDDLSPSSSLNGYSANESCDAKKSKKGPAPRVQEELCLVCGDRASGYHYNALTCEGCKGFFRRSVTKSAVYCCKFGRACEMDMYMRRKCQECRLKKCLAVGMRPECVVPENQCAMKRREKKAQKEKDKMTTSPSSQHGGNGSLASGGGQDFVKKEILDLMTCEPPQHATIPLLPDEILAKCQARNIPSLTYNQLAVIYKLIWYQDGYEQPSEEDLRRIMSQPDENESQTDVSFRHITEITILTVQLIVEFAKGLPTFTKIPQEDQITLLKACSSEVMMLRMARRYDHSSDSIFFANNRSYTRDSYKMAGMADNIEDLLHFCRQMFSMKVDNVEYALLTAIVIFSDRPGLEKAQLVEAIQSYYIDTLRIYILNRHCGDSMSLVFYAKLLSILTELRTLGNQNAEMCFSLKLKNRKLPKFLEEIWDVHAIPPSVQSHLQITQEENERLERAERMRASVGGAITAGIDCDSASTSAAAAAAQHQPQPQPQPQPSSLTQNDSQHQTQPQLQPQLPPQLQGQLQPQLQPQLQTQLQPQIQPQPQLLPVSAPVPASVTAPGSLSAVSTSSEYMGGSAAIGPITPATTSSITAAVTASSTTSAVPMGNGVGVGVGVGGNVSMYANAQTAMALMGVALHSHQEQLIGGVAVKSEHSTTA

[5] = target: T3, GST-SMRT (GST fusion of the C-SMRT encoded by the yeast two hybrid clone) (human, UniProt Q9Y618 2000-2514); assay: far-western: 35S-labelled receptor on GST-SMRT, phosphoimager
T3 construct: also called immobilized GST-SMRT; not shown: glutathione S-transferase (GST) tag

CC1=C(/C=C/C(C)=C/C=C/C(C)=C/C(=O)O)C(C)(C)CCC1 [atRA, all-trans retinoic acid]
dissociation of the interaction between E52 and RAR by ligand [1]: can be dissociated

RAR403 (carboxy-terminal deletion mutant of RAR) (from UniProt P10276 1-403) (receptor)
fold interaction relative to wild type RAR (phosphoimager) [2]: 4 fold

B1: m-SMRTβ (amino acids 1 to 813): construct containing the entire amino terminus of m-SMRTβ (protein, UniProt Q9WU42 1-813, looked up, fragment)
chain: MSGSTQPVAQTWRAAEPRYPPHGISYPVQIARSHTDVGLLEYQHHPRDYTSHLSPGSIIQPQRRRPSLLSEFQPGSERSQELHLRPESRTFLPELGKPDIEFTESKRPRLELLPDTLLRPSPLLATGQPSGSEDLTKDRSLAGKLEPVSPPSPPHADPELELAPSRLSKEELIQNMDRVDREITMVEQQISKLKKKQQQLEEEAAKPPEPEKPVSPPPIESKHRSLVQIIYDENRKKAEAAHRILEGLGPQVELPLYNQPSDTRQYHENIKINQAMRKKLILYFKRRNHARKQWEQRFCQRYDQLMEAWEKKVERIENNPRRRAKESKVREYYEKQFPEIRKQRELQERMQSRVGQRGSGLSMSAARSEHEVSEIIDGLSEQENLEKQMRQLAVIPPMLYDADQQRIKFINMNGLMDDPMKVYKDRQVTNMWSEQERDTFREKFMQHPKNFGLIASFLERKTVAECVLYYYLTKKNENYKSLVRRSYRRRGKSQQQQQQQQQQQQQQMARSSQEEKEEKEKEKEADKEEEKQDAENEKEELSKEKTDDTSGEDNDEKEAVASKGRKTANSQGRRKGRITRSMANEANHEETATPQQSSELASMEMNESSRWTEEEMETAKKGLLEHGRNWSAIARMVGSKTVSQCKNFYFNYKKRQNLDEILQQHKLKMEKERNARRKKKKTPAAASEETAFPPAAEDEEMEASGASANEEELAEEAEASQASGNEVPRVGECSGPAAVNNSSDTESVPSPRSEATKDTGPKPTGTEALPAATQPPVPPPEEPAVAPAEPSPVPDASGPPSPEPSPSPAAPPA
modifications: SMRTbeta
repression relative to basal reporter activity with GAL-DBD alone [3]: about 2.6 fold

B2: Gal4-c-SMRT (aa 981 to C terminus) (other)
chain: MKLLSSIEQACDICRLKKLKCSKEKPKCAKCLKNNWECRYSPKTKRSPLTRAHLTEVESRLERLEQLFLLIFPREDLDMILKMDSLQDIKALLTGLFVQDNVNKDAVTDRLASVETDMPLTLRQHRISATSSSEESSNKGQRQLTVSAPHHASPDPPAPPASASDPHREKTQSKPFSIQELELRSLGYHGSSYSPEGVEPVSPVSSPSLTHDKGLPKHLEELDKSHLEGELRPKQPGPVKLGGEAAHLPHLRPLPESQPSSSPLLQTAPGVKGHQRVVTLAQHISEVITQDYTRHHPQQLSAPLPAPLYSFPGASCPVLDLRRPPSDLYLPPPDHGAPARGSPHSEGGKRSPEPNKTSVLGGGEDGIEPVSPPEGMTEPGHSRSAVYPLLYRDGEQTEPSRMGSKSPGNTSQPPAFFSKLTESNSAMVKSKKQEINKKLNTHNRNEPEYNISQPGTEIFNMPAITGTGLMTYRSQAVQEHASTNMGLEAIIRKALMGGGKAKVSGRPSSRKAKSPAPGLASGDRPPSVSSVHSEGDCNRRTPLTNRVWEDRPSSAGSTPFPYNPLIMRLQAGVMASPPPPGLPAGSGPLAGPHHAWDEEPKPLLCSQYETLSDSE
notes: also called vertebrate corepressor
binding result [4]: no binding

B3: v-erbA (naturally occurring oncogene, oncogenic TR variant) (receptor)
chain: REEQVTSEQAKFWLGLGGGRVSPPGPECIEKPATERRIDKGEEMGETTVQRDAKMAPEKMATPKTVGTSCYQCGTATGCNCVTASAPPPPYVGSGLYPSLAGAGEQGQGGDTPRGAEQPRAEPGHAGQAPGPALTDWARIREELASTGPPVVAMPVVIKTEGPAWTPLEPEDTRWLDGKHKRKSSQCLVKSSMSGYIPSCLDKDEQCVVCGDKATGYHYRCITCEGCKSFFRRTIQKNLHPTYSCTYDGCCVIDKITRNQCQLCRFKKCISVGMAMDLVLDDSKRVAKRKLIEENRERRRKEEMIKSLQHRPSPSAEEWELIHVVTEAHRSTNAQGSHWKQRRKFLLEDIGQSPMASMLDGDKVDLEAFSEFTKIITPAITRVVDFAKNLPMFSELPCEDQIILLKGCCMEIMSLRAAVRYDPESETLTLSGEMAVKREQLKNGGLGVVSDAIFDLGKSLSAFNLDDTEVALLQAVLLMSSDRTGLICVDKIEKCQESYLLAFEHYINYRKHNIPHFWSKLLMKVADLRMIGAYHASRFLHMKVECPTELSPQEV
fold interaction relative to hTRβ (phosphoimager) [5]: 18 fold

B4: TR160 (rTRα Pro 160->Arg mutant, full length) (receptor, rat (printed as rTRα), UniProt P63059 1-492, looked up)
chain: MEQKPSKVECGSDPEENSARSPDGKRKRKNGQCPLKSSMSGYIPSYLDKDEQCVVCGDKATGYHYRCITCEGCKGFFRRTIQKNLHPTYSCKYDSCCVIDKITRNQCQLCRFKKCIAVGMAMDLVLDDSKRVAKRKLIEQNRERRRKEEMIRSLQQRPERTPEEWDLIHVATEAHRSTNAQGSHWKQRRKFLPDDIGQSPIVSMPDGDKVDLEAFSEFTKIITPAITRVVDFAKKLPMFSELPCEDQIILLKGCCMEIMSLRAAVRYDPESDTLTLSGEMAVKREQLKNGGLGVVSDAIFELGKSLSAFNLDDTEVALLQAVLLMSTDRSGLLCVDKIEKSQEAYLLAFEHYVNHRKHNIPHFWPKLLMKVTDLRMIGACHASRFLHMKVECPTELFPPLFLEVFEDQEV
notes: mature; 35S-labelled probe; also called rTRα R160 mutant; TR160 mutant
fold lower signal relative to rTRα (phosphoimager) [5]: 10 fold lower

Source: patent publication US7314747B1, “SMRT co-repressors, transcriptional co-repressors that interact with nuclear hormone receptors” (The Salk Institute for Biological Studies, priority 1995, dated 2008)
